According to US10800847:

What was measured:
HLA-B*1501 (B62) (human) [1] = assay: iBead MFI against regular-bead MFI, IVIg diluted 1:8
HLA-B*0801 (B8) (human) [2] = assay: as above
[3] = target: HLA-Cw*0801 (Cw8) (human); assay: Luminex, iBeads (#6), 1:8
[4] = target: HLA-Cw*0702 (Cw7) (human); assay: Luminex, iBeads (#6), 1:8
[5] = target: HLA-Cw*1601 (Cw16) (human); assay: Luminex, iBeads (#6), 1:8
[6] = target: HLA-Cw*1802 (Cw18) (human); assay: Luminex, iBeads (#6), 1:8
[7] = target: HLA-Cw*1402 (Cw14) (human); assay: Luminex, iBeads (#6), 1:8
[8] = target: HLA-Cw*0304 (Cw10) (human); assay: Luminex, iBeads (#6), 1:8
[9] = target: Albumin (negative control beads) (human or bovine); assay: Luminex, iBeads (#6), 1:8
HLA-B*8201 (B82) (human) [10] = assay: Luminex, iBeads (#6), 1:8
[11] = target: HLA-Cw*1502 (Cw15) (human); assay: Luminex, iBeads (#6), 1:8
[12] = target: HLA-Cw*0302 (Cw10) (human); assay: Luminex, iBeads (#6), 1:8
[13] = target: HLA-Cw*1203 (Cw12) (human); assay: Luminex, iBeads (#6), 1:8
[14] = target: HLA-Cw*1701 (Cw17) (human); assay: Luminex, iBeads (#6), 1:8
[15] = target: HLA-Cw*0602 (Cw6) (human); assay: Luminex, iBeads (#6), 1:8
[16] = target: HLA-Cw*0303 (Cw9) (human); assay: Luminex, iBeads (#6), 1:8
[17] = target: HLA-Cw*0501 (Cw5) (human); assay: Luminex, iBeads (#6), 1:8
[18] = target: HLA-Cw*0702 (Cw7) (human); assay: Luminex, regular beads (#7), 1:8
[19] = target: HLA-Cw*0401 (Cw4) (human); assay: Luminex, regular beads (#7), 1:8
[20] = target: HLA-Cw*1802 (Cw18) (human); assay: Luminex, regular beads (#7), 1:8
[21] = target: HLA-Cw*1402 (Cw14) (human); assay: Luminex, regular beads (#7), 1:8
[22] = target: HLA-Cw*0304 (Cw10) (human); assay: Luminex, regular beads (#7), 1:8
[23] = target: Albumin (negative control beads) (human or bovine); assay: Luminex, regular beads (#7), 1:8
[24] = target: HLA-Cw*0102 (Cw1) (human); assay: Luminex, regular beads (#7), 1:8
HLA-B*8201 (B82) (human) [25] = assay: Luminex, regular beads (#7), 1:8
[26] = target: HLA-Cw*1502 (Cw15) (human); assay: Luminex, regular beads (#7), 1:8
[27] = target: HLA-Cw*0302 (Cw10) (human); assay: Luminex, regular beads (#7), 1:8
[28] = target: HLA-Cw*1701 (Cw17) (human); assay: Luminex, regular beads (#7), 1:8
[29] = target: HLA-Cw*0602 (Cw6) (human); assay: Luminex, regular beads (#7), 1:8
[30] = target: HLA-Cw*0303 (Cw9) (human); assay: Luminex, regular beads (#7), 1:8
[31] = target: HLA-Cw*0202 (Cw2) (human); assay: Luminex, regular beads (#7), 1:8
[32] = target: HLA-Cw*0501 (Cw5) (human); assay: Luminex, regular beads (#7), 1:8
HLA-B*1511 (B75) (human) = assay: Luminex iBeads (#6), IVIg diluted 1:8
HLA-B*1503 (B72) (human) = assay: Luminex iBeads (#6), IVIg diluted 1:8
HLA-B*1402 (B65) (human) = assay: Luminex iBeads (#6), IVIg diluted 1:8
HLA-B*1516 (B63) (human) = assay: Luminex iBeads (#6), IVIg diluted 1:8
HLA-B*1302 (B13) (human) = assay: Luminex iBeads (#6), IVIg diluted 1:8
HLA-B*1501 (B62) (human) [33] = assay: Luminex iBeads (#6), IVIg diluted 1:8
HLA-B*1510 (B71) (human) = assay: Luminex iBeads (#6), IVIg diluted 1:8
HLA-B*1502 (B75) (human) [34] = assay: Luminex iBeads (#6), IVIg diluted 1:8
HLA-B*1301 (B13) (human) = assay: Luminex iBeads (#6), IVIg diluted 1:8
HLA-B*1801 (B18) (human) = assay: Luminex iBeads (#6), IVIg diluted 1:8
HLA-B*0702 (B7) (human) = assay: Luminex iBeads (#6), IVIg diluted 1:8
HLA-B*1513 (B77) (human) = assay: Luminex iBeads (#6), IVIg diluted 1:8
HLA-B*1512 (B76) (human) = assay: Luminex iBeads (#6), IVIg diluted 1:8
HLA-B*0801 (B8) (human) [35] = assay: Luminex iBeads (#6), IVIg diluted 1:8
[36] = target: Serum albumin on negative control beads (HSA/BSA) (human or bovine); assay: Luminex iBeads (#6), IVIg diluted 1:8
HLA-B*1502 (B75) (human) [37] = assay: iBead MFI against regular-bead MFI, IVIg diluted 1:8
[38] = target: HLA-Cw*1601 (Cw16) (human); assay: Luminex, regular beads (#7), 1:8
[39] = target: HLA-Cw*1203 (Cw12) (human); assay: Luminex, regular beads (#7), 1:8

Substance: IVIg GamaSTAN S/D (Talecris Biotherapeutics, USA) (antibody)
- Difference % (iBead vs regular bead) (HLA-B*1501 (B62) (human) [1]): 270%
- Difference % (iBead vs regular bead) (HLA-B*0801 (B8) (human) [2]): -63%
- MFI [3]: 1940 MFI
- MFI [4]: 3480 MFI
- MFI [5]: 2950 MFI
- MFI [6]: 7810 MFI
- MFI [7]: 1820 MFI
- MFI [8]: 2750 MFI
- MFI [9]: 5030 MFI
- MFI (HLA-B*8201 (B82) (human) [10]): 4260 MFI
- MFI [11]: 7670 MFI
- MFI [12]: 2380 MFI
- MFI [13]: 2660 MFI
- MFI [14]: 9610 MFI
- MFI [15]: 8180 MFI
- MFI [16]: 2610 MFI
- MFI [17]: 6350 MFI
- MFI [18]: 7620 MFI
- MFI [19]: 6290 MFI
- MFI [20]: 7980 MFI
- MFI [21]: 4270 MFI
- MFI [22]: 3710 MFI
- MFI [23]: 3790 MFI
- MFI [24]: 4540 MFI
- MFI (HLA-B*8201 (B82) (human) [25]): 3860 MFI
- MFI [26]: 6170 MFI
- MFI [27]: 4010 MFI
- MFI [28]: 7860 MFI
- MFI [29]: 9170 MFI
- MFI [30]: 2860 MFI
- MFI [31]: 7180 MFI
- MFI [32]: 6970 MFI
- MFI (HLA-B*1511 (B75) (human)): 2380 MFI
- MFI (HLA-B*1503 (B72) (human)): 0 MFI
- MFI (HLA-B*1402 (B65) (human)): 0 MFI
- MFI (HLA-B*1516 (B63) (human)): 3280 MFI
- MFI (HLA-B*1302 (B13) (human)): 1200 MFI
- MFI (HLA-B*1501 (B62) (human) [33]): 394 MFI
- MFI (HLA-B*1510 (B71) (human)): 492 MFI
- MFI (HLA-B*1502 (B75) (human) [34]): 709 MFI
- MFI (HLA-B*1301 (B13) (human)): 1840 MFI
- MFI (HLA-B*1801 (B18) (human)): 0 MFI
- MFI (HLA-B*0702 (B7) (human)): 2010 MFI
- MFI (HLA-B*1513 (B77) (human)): 904 MFI
- MFI (HLA-B*1512 (B76) (human)): 5970 MFI
- MFI (HLA-B*0801 (B8) (human) [35]): 324 MFI
- MFI [36]: 5030 MFI

Substance: IVIg Gamunex-C Lot NKLG1 (antibody)
- Difference % (iBead vs regular bead) (HLA-B*1502 (B75) (human) [37]): 32%
- Difference % (iBead vs regular bead) (HLA-B*0801 (B8) (human) [2]): -31%
- MFI [5]: 4070 MFI
- MFI [6]: 3580 MFI
- MFI [7]: 3970 MFI
- MFI [8]: 4140 MFI
- MFI [9]: 7150 MFI
- MFI (HLA-B*8201 (B82) (human) [10]): 2730 MFI
- MFI [11]: 3590 MFI
- MFI [12]: 4870 MFI
- MFI [13]: 4810 MFI
- MFI [14]: 6150 MFI
- MFI [15]: 4230 MFI
- MFI [16]: 4290 MFI
- MFI [17]: 4010 MFI
- MFI [18]: 11800 MFI
- MFI [38]: 8460 MFI
- MFI [19]: 7530 MFI
- MFI [20]: 8430 MFI
- MFI [21]: 7240 MFI
- MFI [23]: 10800 MFI
- MFI (HLA-B*8201 (B82) (human) [25]): 6060 MFI
- MFI [39]: 7100 MFI
- MFI [28]: 6560 MFI
- MFI [29]: 12000 MFI
- MFI [30]: 4260 MFI
- MFI [32]: 7550 MFI
- MFI (HLA-B*1511 (B75) (human)): 3380 MFI
- MFI (HLA-B*1503 (B72) (human)): 507 MFI
- MFI (HLA-B*1402 (B65) (human)): 929 MFI
- MFI (HLA-B*1516 (B63) (human)): 2400 MFI
- MFI (HLA-B*1302 (B13) (human)): 1710 MFI
- MFI (HLA-B*1501 (B62) (human) [33]): 749 MFI
- MFI (HLA-B*1510 (B71) (human)): 1450 MFI
- MFI (HLA-B*1301 (B13) (human)): 3560 MFI
- MFI (HLA-B*1801 (B18) (human)): 1140 MFI
- MFI (HLA-B*1513 (B77) (human)): 2350 MFI
- MFI (HLA-B*1512 (B76) (human)): 2810 MFI
- MFI (HLA-B*0801 (B8) (human) [35]): 1510 MFI
- MFI [36]: 7150 MFI
